# PMC8732845, “Novel interaction between neurotrophic factor-α1/carboxypeptidase E and serotonin receptor, 5-HTR1E, protects human neurons against oxidative/neuroexcitotoxic stress via β-arrestin/ERK signaling” (Cellular and Molecular Life Sciences: CMLS, 2021)
# B1: Recombinant mouse NF-α1/CPE (neurotrophic factor-α1/carboxypeptidase E), unlabeled (ligand)
# chain: not shown
# Molecular target: 5-hydroxytryptamine receptor 1-E (5-HTR1E) on stably transfected HEK293 cells (human, UniProt P28566 1-365)
# Sequence (P28566 whole entry): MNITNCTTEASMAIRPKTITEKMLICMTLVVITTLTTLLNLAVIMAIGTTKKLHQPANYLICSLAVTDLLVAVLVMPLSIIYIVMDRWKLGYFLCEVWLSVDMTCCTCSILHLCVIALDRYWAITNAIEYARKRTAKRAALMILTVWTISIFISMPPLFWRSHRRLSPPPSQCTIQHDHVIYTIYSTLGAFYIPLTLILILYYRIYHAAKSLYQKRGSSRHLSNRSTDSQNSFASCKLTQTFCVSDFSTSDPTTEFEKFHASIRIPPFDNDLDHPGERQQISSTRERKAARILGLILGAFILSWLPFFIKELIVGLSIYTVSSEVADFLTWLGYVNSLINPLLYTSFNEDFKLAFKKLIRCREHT
# Assay: cell-based or functional assay
binder,measurement,value
B1,"CREB phosphorylation (Western blot, pCREB/tCREB) in 5-HTR1E stable cells, 50 nM NF-α1/CPE, 10–60 min (value after 20 min); not in control HEK293 cells",1.3 fold
same,"phosphorylation of ERK 1/2 (Western blot, pERK/tERK) in 5-HTR1E stable HEK293 cells, 0–50 nM NF-α1/CPE for 5–15 min; not in control HEK293 cells",3.4 fold
